Source: patent US20260184814A1, “BROADLY NE[…] INFLUENZA NEURAMINIDASE” (priority 2022, published 2026)

Key:
[1] = biological target: N2 A/HongKong/2671/2019 N245S (Influenza A virus (H3N2))
[2] = biological target: N2 A/Switzerland/8060/2017 N245S (Influenza A virus (H3N2))
[3] = biological target: N2 A/Tanzania/205/2010 S245N 247T (Influenza A virus (H3N2))

In the case of 1G01 Fab, the Kd [1] is reported as 375 nM, the Kd [2] is reported as 398 nM and the Kd [3] is reported as less than 0.02 nM.
